Reference: patent US20190233495A1 (Sanofi, published 2019)
Non-standard residues stand in square brackets, D forms with d. Nle = CCCC[C@H](N)C(=O)O; Aib = CC(C)(N)C(=O)O

B1: SEQ ID NO: 53 (peptide)
peptide: Ac-LEGREKVRAQI[Aib][Aib]EG[Nle]STYS[Aib]RKK-NH2
SMILES: CCCC[C@H](NC(=O)CNC(=O)[C@H](CCC(=O)O)NC(=O)C(C)(C)NC(=O)C(C)(C)NC(=O)[C@@H](NC(=O)[C@H](CCC(N)=O)NC(=O)[C@H](C)NC(=O)[C@H](CCCNC(=N)N)NC(=O)[C@@H](NC(=O)[C@H](CCCCN)NC(=O)[C@H](CCC(=O)O)NC(=O)[C@H](CCCNC(=N)N)NC(=O)CNC(=O)[C@H](CCC(=O)O)NC(=O)[C@H](CC(C)C)NC(C)=O)C(C)C)[C@@H](C)CC)C(=O)N[C@@H](CO)C(=O)N[C@H](C(=O)N[C@@H](Cc1ccc(O)cc1)C(=O)N[C@@H](CO)C(=O)NC(C)(C)C(=O)N[C@@H](CCCNC(=N)N)C(=O)N[C@@H](CCCCN)C(=O)N[C@@H](CCCCN)C(N)=O)[C@@H](C)O
B2: SEQ ID NO: 55 (peptide)
peptide: Ac-LEGREKVRAQI[Aib][Aib]EG[Nle]SRWS[Aib]RRR-NH2
SMILES: CCCC[C@H](NC(=O)CNC(=O)[C@H](CCC(=O)O)NC(=O)C(C)(C)NC(=O)C(C)(C)NC(=O)[C@@H](NC(=O)[C@H](CCC(N)=O)NC(=O)[C@H](C)NC(=O)[C@H](CCCNC(=N)N)NC(=O)[C@@H](NC(=O)[C@H](CCCCN)NC(=O)[C@H](CCC(=O)O)NC(=O)[C@H](CCCNC(=N)N)NC(=O)CNC(=O)[C@H](CCC(=O)O)NC(=O)[C@H](CC(C)C)NC(C)=O)C(C)C)[C@@H](C)CC)C(=O)N[C@@H](CO)C(=O)N[C@@H](CCCNC(=N)N)C(=O)N[C@@H](Cc1c[nH]c2ccccc12)C(=O)N[C@@H](CO)C(=O)NC(C)(C)C(=O)N[C@@H](CCCNC(=N)N)C(=O)N[C@@H](CCCNC(=N)N)C(=O)N[C@@H](CCCNC(=N)N)C(N)=O
B3: SEQ ID NO: 5 (peptide)
peptide: Ac-LEGREKVRAK(Ac)I[Aib][Aib]EG[Nle]STWS[Aib]RKK(Ac)-NH2
SMILES: CCCC[C@H](NC(=O)CNC(=O)[C@H](CCC(=O)O)NC(=O)C(C)(C)NC(=O)C(C)(C)NC(=O)[C@@H](NC(=O)[C@H](CCCCNC(C)=O)NC(=O)[C@H](C)NC(=O)[C@H](CCCNC(=N)N)NC(=O)[C@@H](NC(=O)[C@H](CCCCN)NC(=O)[C@H](CCC(=O)O)NC(=O)[C@H](CCCNC(=N)N)NC(=O)CNC(=O)[C@H](CCC(=O)O)NC(=O)[C@H](CC(C)C)NC(C)=O)C(C)C)[C@@H](C)CC)C(=O)N[C@@H](CO)C(=O)N[C@H](C(=O)N[C@@H](Cc1c[nH]c2ccccc12)C(=O)N[C@@H](CO)C(=O)NC(C)(C)C(=O)N[C@@H](CCCNC(=N)N)C(=O)N[C@@H](CCCCN)C(=O)N[C@@H](CCCCNC(C)=O)C(N)=O)[C@@H](C)O
B4: SEQ ID NO: 51 (peptide)
peptide: Ac-LEGREKVRAQI[Aib][Aib]EG[Nle]STFS[Aib]RKK-NH2
SMILES: CCCC[C@H](NC(=O)CNC(=O)[C@H](CCC(=O)O)NC(=O)C(C)(C)NC(=O)C(C)(C)NC(=O)[C@@H](NC(=O)[C@H](CCC(N)=O)NC(=O)[C@H](C)NC(=O)[C@H](CCCNC(=N)N)NC(=O)[C@@H](NC(=O)[C@H](CCCCN)NC(=O)[C@H](CCC(=O)O)NC(=O)[C@H](CCCNC(=N)N)NC(=O)CNC(=O)[C@H](CCC(=O)O)NC(=O)[C@H](CC(C)C)NC(C)=O)C(C)C)[C@@H](C)CC)C(=O)N[C@@H](CO)C(=O)N[C@H](C(=O)N[C@@H](Cc1ccccc1)C(=O)N[C@@H](CO)C(=O)NC(C)(C)C(=O)N[C@@H](CCCNC(=N)N)C(=O)N[C@@H](CCCCN)C(=O)N[C@@H](CCCCN)C(N)=O)[C@@H](C)O
B5: SEQ ID NO: 6 (peptide)
peptide: H-LEGREKVRAQI[Aib]IEGMSKWSKRKK-NH2
SMILES: CC[C@H](C)[C@H](NC(=O)[C@H](CCC(N)=O)NC(=O)[C@H](C)NC(=O)[C@H](CCCNC(=N)N)NC(=O)[C@@H](NC(=O)[C@H](CCCCN)NC(=O)[C@H](CCC(=O)O)NC(=O)[C@H](CCCNC(=N)N)NC(=O)CNC(=O)[C@H](CCC(=O)O)NC(=O)[C@@H](N)CC(C)C)C(C)C)C(=O)NC(C)(C)C(=O)N[C@H](C(=O)N[C@@H](CCC(=O)O)C(=O)NCC(=O)N[C@@H](CCSC)C(=O)N[C@@H](CO)C(=O)N[C@@H](CCCCN)C(=O)N[C@@H](Cc1c[nH]c2ccccc12)C(=O)N[C@@H](CO)C(=O)N[C@@H](CCCCN)C(=O)N[C@@H](CCCNC(=N)N)C(=O)N[C@@H](CCCCN)C(=O)N[C@@H](CCCCN)C(N)=O)[C@@H](C)CC
B6: SEQ ID NO: 54 (peptide)
peptide: Ac-LEGREKVRAQI[Aib][Aib]EGQSTWS[Aib]RKK-NH2
SMILES: CC[C@H](C)[C@H](NC(=O)[C@H](CCC(N)=O)NC(=O)[C@H](C)NC(=O)[C@H](CCCNC(=N)N)NC(=O)[C@@H](NC(=O)[C@H](CCCCN)NC(=O)[C@H](CCC(=O)O)NC(=O)[C@H](CCCNC(=N)N)NC(=O)CNC(=O)[C@H](CCC(=O)O)NC(=O)[C@H](CC(C)C)NC(C)=O)C(C)C)C(=O)NC(C)(C)C(=O)NC(C)(C)C(=O)N[C@@H](CCC(=O)O)C(=O)NCC(=O)N[C@@H](CCC(N)=O)C(=O)N[C@@H](CO)C(=O)N[C@H](C(=O)N[C@@H](Cc1c[nH]c2ccccc12)C(=O)N[C@@H](CO)C(=O)NC(C)(C)C(=O)N[C@@H](CCCNC(=N)N)C(=O)N[C@@H](CCCCN)C(=O)N[C@@H](CCCCN)C(N)=O)[C@@H](C)O
B7: SEQ ID NO: 1 (peptide)
peptide: Ac-LEGREKVRAQI[Aib]IEGMSKWSKRKK-NH2
SMILES: CC[C@H](C)[C@H](NC(=O)[C@H](CCC(N)=O)NC(=O)[C@H](C)NC(=O)[C@H](CCCNC(=N)N)NC(=O)[C@@H](NC(=O)[C@H](CCCCN)NC(=O)[C@H](CCC(=O)O)NC(=O)[C@H](CCCNC(=N)N)NC(=O)CNC(=O)[C@H](CCC(=O)O)NC(=O)[C@H](CC(C)C)NC(C)=O)C(C)C)C(=O)NC(C)(C)C(=O)N[C@H](C(=O)N[C@@H](CCC(=O)O)C(=O)NCC(=O)N[C@@H](CCSC)C(=O)N[C@@H](CO)C(=O)N[C@@H](CCCCN)C(=O)N[C@@H](Cc1c[nH]c2ccccc12)C(=O)N[C@@H](CO)C(=O)N[C@@H](CCCCN)C(=O)N[C@@H](CCCNC(=N)N)C(=O)N[C@@H](CCCCN)C(=O)N[C@@H](CCCCN)C(N)=O)[C@@H](C)CC
B8: SEQ ID NO: 50 (peptide)
peptide: Ac-LEGREKVRAQI[Aib][Aib]EG[Nle]STWS[Aib]RRR-NH2
SMILES: CCCC[C@H](NC(=O)CNC(=O)[C@H](CCC(=O)O)NC(=O)C(C)(C)NC(=O)C(C)(C)NC(=O)[C@@H](NC(=O)[C@H](CCC(N)=O)NC(=O)[C@H](C)NC(=O)[C@H](CCCNC(=N)N)NC(=O)[C@@H](NC(=O)[C@H](CCCCN)NC(=O)[C@H](CCC(=O)O)NC(=O)[C@H](CCCNC(=N)N)NC(=O)CNC(=O)[C@H](CCC(=O)O)NC(=O)[C@H](CC(C)C)NC(C)=O)C(C)C)[C@@H](C)CC)C(=O)N[C@@H](CO)C(=O)N[C@H](C(=O)N[C@@H](Cc1c[nH]c2ccccc12)C(=O)N[C@@H](CO)C(=O)NC(C)(C)C(=O)N[C@@H](CCCNC(=N)N)C(=O)N[C@@H](CCCNC(=N)N)C(=O)N[C@@H](CCCNC(=N)N)C(N)=O)[C@@H](C)O
B9: SEQ ID NO: 52 (peptide)
peptide: Ac-LEGREKVRAQI[Aib][Aib]EG[Nle]SQWS[Aib]RRR-NH2
SMILES: CCCC[C@H](NC(=O)CNC(=O)[C@H](CCC(=O)O)NC(=O)C(C)(C)NC(=O)C(C)(C)NC(=O)[C@@H](NC(=O)[C@H](CCC(N)=O)NC(=O)[C@H](C)NC(=O)[C@H](CCCNC(=N)N)NC(=O)[C@@H](NC(=O)[C@H](CCCCN)NC(=O)[C@H](CCC(=O)O)NC(=O)[C@H](CCCNC(=N)N)NC(=O)CNC(=O)[C@H](CCC(=O)O)NC(=O)[C@H](CC(C)C)NC(C)=O)C(C)C)[C@@H](C)CC)C(=O)N[C@@H](CO)C(=O)N[C@@H](CCC(N)=O)C(=O)N[C@@H](Cc1c[nH]c2ccccc12)C(=O)N[C@@H](CO)C(=O)NC(C)(C)C(=O)N[C@@H](CCCNC(=N)N)C(=O)N[C@@H](CCCNC(=N)N)C(=O)N[C@@H](CCCNC(=N)N)C(N)=O

What follows are binders tested against T1, RXFP1 receptor (UniProt Q9HBX9 1-757, limits assumed) (assay: cell-based or functional assay).
T1 sequence (looked up): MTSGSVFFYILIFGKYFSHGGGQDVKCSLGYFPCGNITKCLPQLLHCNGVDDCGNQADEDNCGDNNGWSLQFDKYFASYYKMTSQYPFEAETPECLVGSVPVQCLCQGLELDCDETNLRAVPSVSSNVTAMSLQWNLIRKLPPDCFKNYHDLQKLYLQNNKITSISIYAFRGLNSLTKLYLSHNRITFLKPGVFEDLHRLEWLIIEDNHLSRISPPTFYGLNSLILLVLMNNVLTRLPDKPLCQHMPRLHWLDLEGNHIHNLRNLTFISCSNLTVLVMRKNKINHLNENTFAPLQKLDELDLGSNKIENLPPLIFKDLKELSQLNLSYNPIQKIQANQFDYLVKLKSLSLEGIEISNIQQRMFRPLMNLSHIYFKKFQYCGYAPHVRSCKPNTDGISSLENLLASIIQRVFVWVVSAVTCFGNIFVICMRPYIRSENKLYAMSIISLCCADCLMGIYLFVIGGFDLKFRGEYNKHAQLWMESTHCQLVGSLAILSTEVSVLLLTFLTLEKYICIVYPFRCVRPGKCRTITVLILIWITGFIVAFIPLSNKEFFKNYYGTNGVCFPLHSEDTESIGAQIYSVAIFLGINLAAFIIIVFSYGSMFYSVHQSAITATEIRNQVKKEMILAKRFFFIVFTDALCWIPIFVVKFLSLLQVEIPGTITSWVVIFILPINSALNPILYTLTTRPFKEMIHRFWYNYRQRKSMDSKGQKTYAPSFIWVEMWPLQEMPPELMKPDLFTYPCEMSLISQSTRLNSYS
In the case of B1, the “cAMP assay in OVCAR 5 cells EC50” value is reported as 76.2 nM and the “cAMP assay in OVCAR 5 cells Emax” value is reported as 75%.
In the case of B2, the “cAMP assay in OVCAR 5 cells EC50” value is reported as 4.9 nM and the “cAMP assay in OVCAR 5 cells Emax” value is reported as 88%.
B3 was tested, and the “cAMP assay in OVCAR 5 cells EC50” value was 7.4 nM and the “cAMP assay in OVCAR 5 cells Emax” value was 98%.
With B4 the “cAMP assay in OVCAR 5 cells EC50” value was 18.6 nM and the “cAMP assay in OVCAR 5 cells Emax” value was 98%.
For B5, the “cAMP assay in OVCAR 5 cells EC50” value was 46.3 nM and the “cAMP assay in OVCAR 5 cells Emax” value was 97%.
With B6 the “cAMP assay in OVCAR 5 cells EC50” value was 22 nM.
B7 was tested, and the “cAMP assay in OVCAR 5 cells EC50” value was 42.9 nM and the “cAMP assay in OVCAR 5 cells Emax” value was 91%.
With B8 the “cAMP assay in OVCAR 5 cells EC50” value was 4.42 nM and the “cAMP assay in OVCAR 5 cells Emax” value was 90%.
In the case of B9, the “cAMP assay in OVCAR 5 cells EC50” value is reported as 9.15 nM and the “cAMP assay in OVCAR 5 cells Emax” value is reported as 94%.
